Laboratory results taken from article PMC6499106, “The CXCR4-LASP1-eIF4F Axis Promotes Translation of Oncogenic Proteins in Triple-Negative Breast Cancer Cells” (Frontiers in Oncology, 2019).

Target: T1, eIF4E, the cap binding subunit of eIF4F, endogenous in 231S cells (human (endogenous in 231S, MDA-MB-231), UniProt P06730 1-217)
T1 construct: source: endogenous, 231S cells, in lysate, held on m7-GTP agarose beads
Experiment: pull-down; m7-GTP agarose beads with 1 mg 231S lysate in Co-IP buffer overnight at 4°C; cells stimulated with 20 nM CXCL12 over time, with or without 100 nM AMD3465; eIF4E as precipitate, LASP1 or eIF4G as co-precipitate by Western blot
Conditions: partners not purified

T1 sequence (P06730 whole entry): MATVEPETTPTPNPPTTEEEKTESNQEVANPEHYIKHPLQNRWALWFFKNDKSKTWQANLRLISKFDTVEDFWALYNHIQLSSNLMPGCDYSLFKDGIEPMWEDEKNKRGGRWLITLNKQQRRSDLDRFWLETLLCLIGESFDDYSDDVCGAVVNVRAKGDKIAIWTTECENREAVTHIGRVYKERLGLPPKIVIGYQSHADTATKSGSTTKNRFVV

- fold change of co-precipitate, CXCL12 for 5 min against 0 min: 2.2 fold
B1: LIM and SH3 Protein 1 (LASP1), endogenous in 231S cells (natural protein, human (endogenous in 231S, MDA-MB-231), UniProt Q14847 1-261, looked up)
chain: MNPNCARCGKIVYPTEKVNCLDKFWHKACFHCETCKMTLNMKNYKGYEKKPYCNAHYPKQSFTMVADTPENLRLKQQSELQSQVRYKEEFEKNKGKGFSVVADTPELQRIKKTQDQISNIKYHEEFEKSRMGPSGGEGMEPERRDSQDGSSYRRPLEQQQPHHIPTSAPVYQQPQQQPVAQSYGGYKEPAAPVSIQRSAPGGGGKRYRAVYDYSAADEDEVSFQDGDTIVNVQQIDDGWMYGTVERTGDTGMLPANYVEAI
notes: LIM and SH3 protein 1 (LASP1), endogenous in human 231S breast cancer cells; source: endogenous, 231S (MDA-MB-231 sorted for high CXCR4) cells, in lysate or in situ
